In PMC7316729, “The cryo-EM structure of the bacterial flagellum cap complex suggests a molecular mechanism for filament elongation” (Nature Communications, 2020):
Several values for one entry are separate records, joined by “and”; a condition that tells them apart may be missing. Equal values may be shown once.

What was measured:
[1] = target: the molecule itself; assay: negative-stain TEM with 2D classification; purified protein on carbon-coated copper grids, 0.75% uranyl formate; ~3500 particles for FliDsm and 2700 for FliDpa, 2D class averages
[2] = target: T1, FliD from Pseudomonas aeruginosa, full length (P. aeruginosa), Q9K3C5; assay: as above; conditions: remark: other sources report otherwise
T1 chain: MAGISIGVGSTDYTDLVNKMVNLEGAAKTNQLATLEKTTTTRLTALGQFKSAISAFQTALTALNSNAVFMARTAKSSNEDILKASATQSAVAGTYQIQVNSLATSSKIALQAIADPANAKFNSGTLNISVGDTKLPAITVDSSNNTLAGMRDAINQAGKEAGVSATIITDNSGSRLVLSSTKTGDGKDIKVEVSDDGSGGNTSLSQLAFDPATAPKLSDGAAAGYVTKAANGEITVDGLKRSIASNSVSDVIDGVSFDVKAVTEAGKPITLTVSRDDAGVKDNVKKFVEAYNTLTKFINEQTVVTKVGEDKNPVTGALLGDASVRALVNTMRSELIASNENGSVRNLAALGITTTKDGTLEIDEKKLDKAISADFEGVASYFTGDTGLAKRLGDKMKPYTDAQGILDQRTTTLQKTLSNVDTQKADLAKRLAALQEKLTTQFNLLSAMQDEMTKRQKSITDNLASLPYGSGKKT

[3] = target: the molecule itself; assay: cryo-EM structure; purified FliDcj at 1 mg/ml vitrified on holey carbon grids; protein in 50 mM HEPES 150 mM NaCl pH 7; D5 symmetry (full map, 4.7 Å), C5 (head map, 5.0 Å)

B1: FliD from Serratia marcescens, full length (natural protein)
chain: MATISSLGLGSGLDLNGLLDKLTKAEQQRLTPYTTKQSSYNAQLTGYGTLKGALEKFDNLSKEMAKEDFFKATTATEHDAFKITTNAKAVPGNYVVEVNKLAQAQTLTTQAKVSDQGAKLGAEGVTDRSLTITAGNPPKETKIPLSDDQTSLVELRDAINGAKAGVTASIMRVGDNDYQLAVSSSTTGENNKISLQVDNDDQLGDILNYNATRGTGTAMKQTVAPQDAELTVNGTAIKRSTNSISDALQGVTIDLKTKTKTDEPQHLVISTNTAGTTDKIKEWVDSYNSLLDTFNALSKFTPVKTGEAPNPTNGPLLGDNTLRGIQSSIKSALSAAQDNPELKGLGNLGISTNTKTGKLEIDSAKLKKAMDEKPDQVSNFFVGNGKDTGMATEIHNEIQSYIKSGGIIENSTKSINTNLDRLNSQITTVTASIQNTIDRYKQQFVQLDTMMSKMNGTSNYLAQQFK
notes: FliD (flagellar cap protein) of Serratia marcescens; gene codon-optimised for E. coli, synthesised and sub-cloned into pET28a; The head domain of this protein is PDB 5XLJ (cited); also called FliDsm; source: E. coli BL21-CodonPlus(DE3)-RIL, purified (Ni-NTA, Superdex 200 SEC)
In the case of B1, the “stoichiometry N” value [1] is reported as 5.

B2: FliD from Pseudomonas aeruginosa, full length, Q9K3C5 1-474 (natural protein)
chain: T1 chain
B2 gave a percent of particles that are pentamers [2] of 25.5% and a stoichiometry N [2] of 5.

B3: FliD from Campylobacter jejuni, full length (flagellum cap protein) (natural protein)
chain: MAFGSLSSLGFGSGVLTQDTIDKLKEAEQKARIDPYTKKIEENTTKQKDLTEIKTKLLSFQTAVSSLADATVFAKRKVVGSISDNPPASLTVNSGVALQSMNINVTQLAQKDVYQSKGLANDGGFVNAQLNGTADLTFFSNGKEYTVTVDKNTTYRDLADKINEASGGEIVAKIVNTGEKGTPYRLTLTSKETGEDSAISFYAGKKDSNGKYQKDINAEKIFDDLGWGLDVSASIDPDKDKKGYGIKDASLHIQTAQNAEFTLDGIKMFRSSNTVTDLGVGMTLTLNKTGEINFDVQQDFEGVTKAMQDLVDAYNDLVTNLNAATDYNSETGTKGTLQGISEVNSIRSSILADLFDSQVVDGTTEDANGNKVNTKVMLSMQDFGLSLNDAGTLSFDSSKFEQKVKEDPDSTESFFSNITKYEDINHTGEVIKTGSLSKYLNSNGGNTNGLEFKPGDFTIVFNNQTYDLSKNSDGTNFKLTGKTEEELLQNLANHINSKGIEGLKVKVESYNQNNVTGFRLNFSGDGSSDFSIKGDANILKELGLSDVNITSKPIEGKGIFSKLKATLQEMTGKDGSITKYDESLTNDIKSLNTSKDSTQAMIDTRYDTMANQWLQYESILNKLNQQLNTVTNMINAANNSNN
notes: FliD (flagellar cap protein, HAP2) of Campylobacter jejuni; gene codon-optimised for E. coli, synthesised and sub-cloned into pET28a; printed numbering runs to residue 643 (C-terminus 577-643); The D4 domain was not built in the model 6SIH; also called FliDcj; HAP2; source: E. coli BL21-CodonPlus(DE3)-RIL, purified (Ni-NTA, Superdex 200 SEC)
In the case of B3, the “stoichiometry N” value [3] is reported as 10 and 5.
